Laboratory results published in patent publication US20230093155A1.
“And” between values parts separate entries of the source, which are not always exact repeats. Equal entries are not always repeated.

molecular target: IL-2Rβ and γc complex expressed on the lymphocytes (human) (UniProt P14784); assay: cell-based or functional assay
Sequence (P14784 27-551, chain 1 of 2): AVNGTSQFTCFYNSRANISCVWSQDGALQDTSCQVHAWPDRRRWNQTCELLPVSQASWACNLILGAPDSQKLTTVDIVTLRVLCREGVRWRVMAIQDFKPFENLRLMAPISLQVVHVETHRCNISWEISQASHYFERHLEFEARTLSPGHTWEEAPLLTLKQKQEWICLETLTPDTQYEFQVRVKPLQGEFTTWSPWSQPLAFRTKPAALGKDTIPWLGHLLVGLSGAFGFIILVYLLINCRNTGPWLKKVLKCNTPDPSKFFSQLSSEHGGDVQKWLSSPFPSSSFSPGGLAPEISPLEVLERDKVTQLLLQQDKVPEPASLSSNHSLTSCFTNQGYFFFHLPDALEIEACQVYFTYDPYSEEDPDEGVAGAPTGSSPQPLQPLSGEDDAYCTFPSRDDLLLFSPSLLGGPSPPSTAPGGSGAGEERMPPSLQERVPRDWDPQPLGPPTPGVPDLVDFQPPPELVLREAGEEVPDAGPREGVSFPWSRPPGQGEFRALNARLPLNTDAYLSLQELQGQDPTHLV
Sequence (P31785 23-369, chain 2 of 2, further chain): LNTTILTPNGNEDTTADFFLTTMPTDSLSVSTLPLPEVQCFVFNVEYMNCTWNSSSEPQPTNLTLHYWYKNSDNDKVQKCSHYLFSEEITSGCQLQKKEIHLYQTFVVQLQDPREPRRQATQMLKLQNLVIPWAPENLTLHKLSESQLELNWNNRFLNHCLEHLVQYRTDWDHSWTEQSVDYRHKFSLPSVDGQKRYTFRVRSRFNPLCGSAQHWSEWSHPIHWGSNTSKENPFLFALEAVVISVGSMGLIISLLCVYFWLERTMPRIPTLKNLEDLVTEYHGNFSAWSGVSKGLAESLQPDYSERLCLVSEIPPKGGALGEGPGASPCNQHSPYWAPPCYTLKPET

Row | CD8 T cell proliferation EC50 (pM) | Fold change vs. P-0313 | Substance
1 | 44 pM and 32 pM | 1 fold | P-0313 (IL-15 S58D/IL-15Rα Fc fusion) (from UniProt Q13261 31-107)
2 | 296000 pM | 6730 fold | P-0357 (IL-15 I68D/IL-15Rα Fc fusion) (from UniProt Q13261 31-107)
3 | 419 pM | 9.5 fold | P-0358 (IL-15 I68H/IL-15Rα Fc fusion) (from UniProt Q13261 31-107)
4 | 360 pM | 11.3 fold | P-0769 (IL-15 V63K/IL-15Rα Fc fusion) (from UniProt Q13261 31-107)
5 | 15400 pM | 485 fold | P-0772 (IL-15 V63A/I68Q/IL-15Rα Fc fusion) (from UniProt Q13261 31-107)

More lines, now with the values behind:

Row | Substance | CD8 T cell proliferation EC50 (pM) | Fold change vs. P-0313
6 | P-0356 (IL-15 I68F/IL-15Rα Fc fusion) (from UniProt Q13261 31-107) | 1250 pM | 29 fold
7 | P-0736 (IL-15 I68Q/IL-15Rα Fc fusion) (from UniProt Q13261 31-107) | 4470 pM | 102 fold
8 | P-0737 (IL-15 I68G/IL-15Rα Fc fusion) (from UniProt Q13261 31-107) | 14500 pM | 330 fold
9 | P-0738 (IL-15 I68K/IL-15Rα Fc fusion) (from UniProt Q13261 31-107) | 24800 pM | 564 fold
10 | P-0764 (IL-15 Q108S/IL-15Rα Fc fusion protein) (from UniProt P0DOX5 223-448; Q13261 31-107) | 62100 pM | 1960 fold
11 | P-0768 (IL-15 V63A/I68G/IL-15Rα Fc fusion) (from UniProt Q13261 31-107) | 48000 pM | 1510 fold
12 | P-0770 (IL-15 V63R/IL-15Rα Fc fusion) (from UniProt Q13261 31-107) | 184 pM | 5.8 fold
13 | P-0771 (IL-15 V63A/IL-15Rα Fc fusion) (from UniProt Q13261 31-107) | 132 pM | 4.2 fold
14 | P-0773 (IL-15 V63A/I68H variant/IL-15RαSushi Fc fusion protein) (from UniProt Q13261 31-107) | 1420 pM | 45 fold
15 | P-0793 (IL-15 Q108A/IL-15Rα Fc fusion) (from UniProt P0DOX5 223-448; Q13261 31-107) | 68800 pM | 2170 fold
